Molecular target: vimentin (UniProt P08670)
Assay: co-immunoprecipitation, FAK-FLAG and endogenous vimentin
Conditions: reference: WT FAK-FLAG; sites Y397

- binding against the reference: weaker
Substance: focal adhesion kinase (FAK) (from UniProt Q05397) Y397F FAK-FLAG
